# In paper PMC9599461, “Stereoselectivity in the Membrane Transport of Phenylethylamine Derivatives by Human Monoamine Transporters and Organic Cation Transporters 1, 2, and 3” (Biomolecules, 2022):
# Where “and” joins values, the source holds several entries; their conditions need not be identical. Equal values may be shown once.
# T1: OCT2 (wild-type) (Homo sapiens, UniProt O15244)
# T1 sequence (O15244 1-555 S270A): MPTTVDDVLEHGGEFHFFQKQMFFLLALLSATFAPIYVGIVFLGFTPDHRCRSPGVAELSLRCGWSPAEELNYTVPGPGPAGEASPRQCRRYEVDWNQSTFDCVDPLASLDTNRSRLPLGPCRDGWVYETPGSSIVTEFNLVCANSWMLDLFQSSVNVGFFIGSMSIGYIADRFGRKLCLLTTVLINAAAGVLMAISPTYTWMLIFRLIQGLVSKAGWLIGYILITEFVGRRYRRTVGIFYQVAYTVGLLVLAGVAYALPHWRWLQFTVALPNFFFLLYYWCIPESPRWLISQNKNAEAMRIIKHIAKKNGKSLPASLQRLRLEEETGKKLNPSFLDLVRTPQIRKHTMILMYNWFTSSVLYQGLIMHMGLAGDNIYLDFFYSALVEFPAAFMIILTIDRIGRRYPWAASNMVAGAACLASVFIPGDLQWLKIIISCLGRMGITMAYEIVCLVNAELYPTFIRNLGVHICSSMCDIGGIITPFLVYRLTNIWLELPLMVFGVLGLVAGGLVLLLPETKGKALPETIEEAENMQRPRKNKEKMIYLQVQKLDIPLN
# T2: OCT3 (Homo sapiens, UniProt O75751)
# T2 sequence (O75751 1-556): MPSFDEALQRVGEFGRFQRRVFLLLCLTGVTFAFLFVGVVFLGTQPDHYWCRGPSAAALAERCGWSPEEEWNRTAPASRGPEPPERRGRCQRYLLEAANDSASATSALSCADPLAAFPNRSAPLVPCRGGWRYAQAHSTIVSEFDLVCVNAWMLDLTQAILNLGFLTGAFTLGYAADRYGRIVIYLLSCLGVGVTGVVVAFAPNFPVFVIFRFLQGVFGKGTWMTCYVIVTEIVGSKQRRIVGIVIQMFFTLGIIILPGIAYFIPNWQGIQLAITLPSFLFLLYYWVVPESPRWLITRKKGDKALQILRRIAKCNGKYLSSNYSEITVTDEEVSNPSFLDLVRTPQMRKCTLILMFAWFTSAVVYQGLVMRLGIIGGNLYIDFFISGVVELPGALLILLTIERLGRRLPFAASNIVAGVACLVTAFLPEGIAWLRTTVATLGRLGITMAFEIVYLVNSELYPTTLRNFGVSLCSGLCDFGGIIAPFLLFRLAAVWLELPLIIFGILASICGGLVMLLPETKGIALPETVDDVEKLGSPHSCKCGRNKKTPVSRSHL
# B1: OCT1 (Homo sapiens) (protein)
# chain: MPTVDDILEQVGESGWFQKQAFLILCLLSAAFAPICVGIVFLGFTPDHHCQSPGVAELSQRCGWSPAEELNYTVPGLGPAGEAFLGQCRRYEVDWNQSALSCVDPLASLATNRSHLPLGPCQDGWVYDTPGSSIVTEFNLVCADSWKLDLFQSCLNAGFLFGSLGVGYFADRFGRKLCLLGTVLVNAVSGVLMAFSPNYMSMLLFRLLQGLVSKGNWMAGYTLITEFVGSGSRRTVAIMYQMAFTVGLVALTGLAYALPHWRWLQLAVSLPTFLFLLYYWCVPESPRWLLSQKRNTEAIKIMDHIAQKNGKLPPADLKMLSLEEDVTEKLSPSFADLFRTPRLRKRTFILMYLWFTDSVLYQGLILHMGATSGNLYLDFLYSALVEIPGAFIALITIDRVGRIYPMAMSNLLAGAACLVMIFISPDLHWLNIIIMCVGRMGITIAIQMICLVNAELYPTFVRNLGVMVCSSLCDIGGIITPFIVFRLREVWQALPLILFAVLGLLAAGVTLLLPETKGVALPETMKDAENLGRKAKPKENTIYLKVQTSEPSGT
# B2: OCT3 (Homo sapiens) (protein)
# chain: T2 sequence (O75751 1-556)
# Experiments:
# Alpha-1 adrenoreceptor = conditions: cited from earlier work
# OCT2 (wild-type) = molecular target: T1, OCT2 (wild-type); test: Stereoselective uptake into OCT2 (wild-type)-overexpressing HEK293 cells; conditions: human, 100 μM racemic substance, two minutes, uptake ratio of enantiomers, given as for (R)
# OCT2 A270S variant [1] = test: Stereoselective uptake into OCT2 A270S variant-overexpressing HEK293 cells; conditions: human, HEK293 cells stably overexpressing human OCT2 A270S variant;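 further: uptake into HEK293 cells stably overexpressing human OCT2 variants, intracellular enantiomers quantified by chiral HPLC-MS/MS and normalized to total protein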
# Alpha-2 adrenoreceptor = tested on: Alpha-2 adrenoreceptor; design: method as in PMID 2833972; conditions: cited from earlier work
# SERT = SERT (Homo sapiens, UniProt P31645); test: Stereoselective uptake into SERT-overexpressing HEK293 cells; conditions: SERT; ratio between enantiomers, given as for (R) or for 1;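 further: uptake into HEK293 cells stably expressing human SERT over 2 min, enantiomers measured in cell lysate by chiral HPLC-MS/MS, normalized to total protein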
# OCT3 = molecular target: T2, OCT3; test: Stereoselective uptake into OCT3-overexpressing HEK293 cells; conditions: OCT3; ratio between enantiomers, given as for (R) or for 1;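 further: intracellular accumulation in HEK293 cells measured by chiral HPLC-MS/MS after a 2 min substrate exposure at 37 °C, uptake normalized to total protein (bicinchoninic acid assay)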
# OCT2 A270S variant [2] = test: in vitro; conditions: human, Stereoselectivity OCT2_A270S, 100 μM racemic substance, two minutes; uptake ratio of enantiomers, given as for (R)
# CNC[C@@H](O)c1ccc(O)cc1 = test: cells, lysate or membranes; conditions: other: HEK293 cells overexpressing human SERT; racemic substrate, two minutes; net uptake minus empty vector control; 37.0 °C
# [3] = tested on: [H][C@](O)(CNC)c1ccc(O)cc1; test: cells, lysate or membranes; conditions: other: HEK293 cells overexpressing human SERT; racemic substrate, two minutes; net uptake minus empty vector control; 37.0 °C
# CNCC(O)c1ccc(O)c(OC)c1 = test: cells, lysate or membranes; conditions: other: HEK293 cells overexpressing human SERT; racemic substrate, two minutes; net uptake minus empty vector control; 37.0 °C
# NC[C@@H](O)c1ccc(O)cc1 = test: cells, lysate or membranes; conditions: other: HEK293 cells overexpressing human SERT; racemic substrate, two minutes; net uptake minus empty vector control; 37.0 °C
# COc1cc(C(O)CN)ccc1O = test: cells, lysate or membranes; conditions: other: HEK293 cells overexpressing human SERT; racemic substrate, two minutes; net uptake minus empty vector control; 37.0 °C
# NCC(O)c1cccc(O)c1 = test: cells, lysate or membranes; conditions: other: HEK293 cells overexpressing human SERT; racemic substrate, two minutes; net uptake minus empty vector control; 37.0 °C
# NC[C@H](O)c1ccc(O)cc1 = test: cells, lysate or membranes; conditions: other: HEK293 cells overexpressing human SERT; racemic substrate, two minutes; net uptake minus empty vector control; 37.0 °C
# [4] = substrate: CNC[C@@H](O)c1ccc(O)cc1; test: cells, lysate or membranes; conditions: racemic substrate, two minutes, net uptake minus empty vector control, 37.0 °C
# [5] = substrate: CNC[C@@H](O)c1cccc(O)c1; test: cells, lysate or membranes; conditions: racemic substrate, two minutes, net uptake minus empty vector control, 37.0 °C
# [6] = substrate: CNC[C@H](O)c1cccc(O)c1; test: cells, lysate or membranes; conditions: racemic substrate, two minutes, net uptake minus empty vector control, 37.0 °C
# [7] = substrate: NC[C@H](O)c1ccc(O)cc1; test: cells, lysate or membranes; conditions: racemic substrate, two minutes, net uptake minus empty vector control, 37.0 °C
# [8] = substrate: COc1cc(C(O)CN)ccc1O; test: cells, lysate or membranes; conditions: racemic substrate, two minutes, net uptake minus empty vector control, 37.0 °C
# [9] = substrate: NC[C@@H](O)c1ccc(O)cc1; test: cells, lysate or membranes; conditions: racemic substrate, two minutes, net uptake minus empty vector control, 37.0 °C
# [10] = substrate: CNCC(O)c1ccc(O)c(OC)c1; test: cells, lysate or membranes; conditions: racemic substrate, two minutes, net uptake minus empty vector control, 37.0 °C
# [11] = substrate: [H][C@](O)(CNC)c1ccc(O)cc1; test: cells, lysate or membranes; conditions: racemic substrate, two minutes, net uptake minus empty vector control, 37.0 °C
# [12] = substrate: NCC(O)c1cccc(O)c1; test: cells, lysate or membranes; conditions: other: HEK293 cells overexpressing human OCT3; racemic substrate, two minutes; net uptake minus empty vector control; 37.0 °C
# [13] = other: HEK293 cells overexpressing human OCT1
# [14] = other: HEK293 cells overexpressing human OCT3
molecule,measurement,setting,value
NCC(O)c1ccc(O)cc1 (stereo not shown) [Octopamine],Enantiomeric Activity Ratio (R/S) in Receptor Binding Alpha-1,Alpha-1 adrenoreceptor,5
same,"selectivity ratio at 2 min, 100 μM","OCT2 (wild-type); HEK293 cells stably overexpressing human wild-type OCT2, Stereoselectivity OCT2_WT",1.74
same,"selectivity ratio at 2 min, 100 μM",OCT2 A270S variant [1],1.69
same,Enantiomeric Activity Ratio (R/S) in Receptor Binding Alpha-2,Alpha-2 adrenoreceptor,3
same,Stereoselectivity Vmax,SERT,2.4 fold
CNC[C@H](O)c1cccc(O)c1 [Phenylephrine],Stereoselectivity Vmax,OCT3,3.3 fold
same,Enantiomeric Activity Ratio (R/S) in Receptor Binding Alpha-1,Alpha-1 adrenoreceptor,420
same,"selectivity ratio at 2 min, 100 μM",OCT2 (wild-type); Stereoselectivity OCT2_WT,1.3
same,"selectivity ratio at 2 min, 100 μM",OCT2 A270S variant [2],1.16
same,Enantiomeric Activity Ratio (R/S) in Receptor Binding Alpha-2,Alpha-2 adrenoreceptor,45
NCC(O)c1cccc(O)c1 (stereo not shown) [Norphenylephrine],Stereoselectivity Vmax,OCT3,3.9 fold
same,Enantiomeric Activity Ratio (R/S) in Receptor Binding Alpha-1,Alpha-1 adrenoreceptor,8
same,"selectivity ratio at 2 min, 100 μM",OCT2 (wild-type); Stereoselectivity OCT2_WT,1.54
same,"selectivity ratio at 2 min, 100 μM",OCT2 A270S variant [2],1.46
same,Enantiomeric Activity Ratio (R/S) in Receptor Binding Alpha-2,Alpha-2 adrenoreceptor,3
SERT (Homo sapiens),Km,CNC[C@@H](O)c1ccc(O)cc1,804 µM
same,Vmax,CNC[C@@H](O)c1ccc(O)cc1,491 pmol × mg Protein^−1 × min^−1
same,Km,[3],528 µM
same,Vmax,[3],363 pmol × mg Protein^−1 × min^−1
same,Km,CNCC(O)c1ccc(O)c(OC)c1,151 µM and 165 µM
same,Vmax,CNCC(O)c1ccc(O)c(OC)c1,87.4 pmol × mg Protein^−1 × min^−1 and 94.5 pmol × mg Protein^−1 × min^−1
same,Km,NC[C@@H](O)c1ccc(O)cc1,42.9 µM
same,Vmax,NC[C@@H](O)c1ccc(O)cc1,104 pmol × mg Protein^−1 × min^−1
same,Km,COc1cc(C(O)CN)ccc1O,42.0 µM and 38.7 µM
same,Vmax,COc1cc(C(O)CN)ccc1O,93.6 pmol × mg Protein^−1 × min^−1 and 157 pmol × mg Protein^−1 × min^−1
same,Km,NCC(O)c1cccc(O)c1,333 µM and 277 µM
same,Vmax,NCC(O)c1cccc(O)c1,400 pmol × mg Protein^−1 × min^−1 and 508 pmol × mg Protein^−1 × min^−1
same,Km,NC[C@H](O)c1ccc(O)cc1,59.6 µM
same,Vmax,NC[C@H](O)c1ccc(O)cc1,247 pmol × mg Protein^−1 × min^−1
B1,Km,[4]; [13],111 µM
same,Vmax,[4]; [13],1348 pmol × mg Protein^−1 × min^−1
same,Km,[5]; [13],178 µM
same,Vmax,[5]; [13],1578 pmol × mg Protein^−1 × min^−1
same,Km,[6]; [13],175 µM
same,Vmax,[6]; [13],1710 pmol × mg Protein^−1 × min^−1
same,Km,[7]; [13],291 µM
same,Vmax,[7]; [13],1318 pmol × mg Protein^−1 × min^−1
same,Km,[8]; [13],806 µM and 1279 µM
same,Vmax,[8]; [13],2137 pmol × mg Protein^−1 × min^−1 and 3145 pmol × mg Protein^−1 × min^−1
same,Km,[9]; [13],281 µM
same,Vmax,[9]; [13],1211 pmol × mg Protein^−1 × min^−1
same,Km,[10]; [13],134 µM and 146 µM
same,Km,[11]; [13],86.7 µM
same,Vmax,[11]; [13],1817 pmol × mg Protein^−1 × min^−1
B2,Km,[4]; [14],75.3 µM
same,Vmax,[4]; [14],2090 pmol × mg Protein^−1 × min^−1
same,Km,[5]; [14],205 µM
same,Vmax,[5]; [14],866 pmol × mg Protein^−1 × min^−1
same,Km,[6]; [14],244 µM
same,Vmax,[6]; [14],2885 pmol × mg Protein^−1 × min^−1
same,Km,[12],582 µM and 498 µM
same,Km,[7]; [14],25.1 µM
same,Vmax,[7]; [14],972 pmol × mg Protein^−1 × min^−1
same,Km,[8]; [14],75.9 µM and 62.4 µM
same,Vmax,[8]; [14],1473 pmol × mg Protein^−1 × min^−1 and 1352 pmol × mg Protein^−1 × min^−1
same,Km,[9]; [14],20.1 µM
same,Vmax,[9]; [14],1072 pmol × mg Protein^−1 × min^−1
same,Km,[10]; [14],29.0 µM and 24.4 µM
same,Vmax,[10]; [14],752 pmol × mg Protein^−1 × min^−1 and 635 pmol × mg Protein^−1 × min^−1
same,Km,[11]; [14],83.5 µM
same,Vmax,[11]; [14],2193 pmol × mg Protein^−1 × min^−1
